Laboratory results taken from US20230134571A1 (INTERNATIONAL AIDS VACCINE INITIATIVE, published 2023).

What was measured:
Test in all cases: cell-based or functional assay
[1] = biological target: HIV Env, isolate 1245045 (HIV)
[2] = biological target: HIV Env, isolate 19157834_V1 (HIV)
[3] = biological target: HIV Env, isolate 3514597 (HIV)
[4] = biological target: HIV Env, isolate 20915593 (HIV)
[5] = biological target: HIV Env, isolate 20965238 (HIV)
[6] = biological target: HIV Env, isolate 21283649 (HIV)
[7] = biological target: HIV Env, isolate 18814602_H8_F3 (HIV)
[8] = biological target: HIV Env, isolate 20198102_E9_G1 (HIV)
[9] = biological target: HIV Env, isolate 21203310_G7_C3 (HIV)
[10] = biological target: HIV Env, isolate 21492713_B11_E3 (HIV)
[11] = biological target: HIV Env, isolate 234-F1-16-57 (HIV)
[12] = biological target: HIV Env, isolate 541-F1_A7_2 (HIV)
[13] = biological target: HIV Env, isolate CAP174.1.06_F3_1B (HIV)
[14] = biological target: HIV Env, isolate CAP266.2.00_E9_h6 (HIV)
[15] = biological target: HIV Env, isolate TRP307.2.00_24_1 (HIV)
[16] = biological target: HIV Env, isolate TRP363.2.00_10_3 (HIV)
[17] = biological target: HIV Env, isolate 722_G4_16 (HIV)
[18] = biological target: HIV Env, isolate CT966_E1-7 (HIV)
[19] = biological target: HIV Env, isolate Ko426_T78_10 (HIV)
[20] = biological target: HIV Env, isolate Ko459_T68_4 (HIV)
[21] = biological target: HIV Env, isolate CA146_H3_3 (HIV)
[22] = biological target: HIV Env, isolate 3603_C11.13 (HIV)
[23] = biological target: HIV Env, isolate 3312_D6.2 (HIV)
[24] = biological target: HIV Env, isolate CAP304.2.00_F6.6 (HIV)
[25] = biological target: HIV Env, isolate CAP323.2.00_B6.45 (HIV)
[26] = biological target: HIV Env, isolate CAP330.2.00_F2.41 (HIV)
[27] = biological target: HIV Env, isolate SO607_B6.9 (HIV)
[28] = biological target: HIV Env, isolate CH0505.w4.3 (HIV)
[29] = biological target: HIV Env, isolate 6146.v7.c23 (HIV)
[30] = biological target: HIV Env, isolate Du422.1 (HIV)
[31] = biological target: HIV Env, isolate 6040.v4.c15 (HIV)
[32] = biological target: HIV Env, isolate 6631.v3.c10 (HIV)
[33] = biological target: HIV Env, isolate 6980.v0.c31 (HIV)
[34] = biological target: HIV Env, isolate Ce704810053_2B7 (HIV)
[35] = biological target: HIV Env, isolate CeCAP200_B8a (HIV)
[36] = biological target: HIV Env, isolate 7060101641A7(Rev-) (HIV)

B1: ePGDM9 (antibody, V domains shown)
VH: QAQLVQSGPEVRKPGTSVKVSCKNPGNTLTTYDLHWVRQVPGQGLQWMGWISHEGDKKVIVERFKAKVTIDWDRSTNTAYLQLSGLTSEDTAVYYCAKGSKHRLRDYALYDEDGALNWAVDVDYLANLEFWGQGTAVTVSS
VL: DIVLTQSPLSLSVTPGESASISCKSSQSLIHGDRNNYLAWYVQKPGRSPQLLIDLASERASGVPDRFSGSGSRKDFTLKISRVETEDVGTYYCMQGRESPWTFGQGTKVDIK
For B1, the “IC50” value [1] was 0.002 µg/mL, the “IC80” value [1] was 0.006 µg/mL and the “IC50” value [2] was 31.7 µg/mL. The “IC80” value [2] was > 50 µg/mL, the “IC50” value [3] was 0.003 µg/mL and the “IC80” value [3] was 0.011 µg/mL. The “IC50” value [4] was 0.004 µg/mL, the “IC80” value [4] was 0.015 µg/mL and the “IC50” value [5] was > 50 µg/mL. The “IC80” value [5] was > 50 µg/mL, the “IC50” value [6] was 1.55 µg/mL and the “IC80” value [6] was > 50 µg/mL. For the same binder, the “IC50” value [7] was < 0.0006 µg/mL, the “IC80” value [7] was 0.002 µg/mL and the “IC50” value [8] was 0.007 µg/mL. For the same binder, the “IC80” value [8] was 0.021 µg/mL, the “IC50” value [9] was 9.94 µg/mL and the “IC80” value [9] was > 50 µg/mL. The “IC50” value [10] was > 50 µg/mL, the “IC80” value [10] was > 50 µg/mL and the “IC50” value [11] was < 0.0006 µg/mL. For the same binder, the “IC80” value [11] was 0.002 µg/mL, the “IC50” value [12] was 0.005 µg/mL and the “IC80” value [12] was 0.02 µg/mL. For the same binder, the “IC50” value [13] was 12.6 µg/mL, the “IC80” value [13] was > 50 µg/mL and the “IC50” value [14] was 0.008 µg/mL. For the same binder, the “IC80” value [14] was 0.037 µg/mL, the “IC50” value [15] was > 50 µg/mL and the “IC80” value [15] was > 50 µg/mL. For the same binder, the “IC50” value [16] was 1.81 µg/mL, the “IC80” value [16] was > 50 µg/mL and the “IC50” value [17] was 0.198 µg/mL. The “IC80” value [17] was 0.585 µg/mL, the “IC50” value [18] was < 0.0006 µg/mL and the “IC80” value [18] was 0.003 µg/mL. The “IC50” value [19] was > 50 µg/mL, the “IC80” value [19] was > 50 µg/mL and the “IC50” value [20] was 0.003 µg/mL. For the same binder, the “IC80” value [20] was 0.126 µg/mL, the “IC50” value [21] was > 50 µg/mL and the “IC80” value [21] was > 50 µg/mL. The “IC50” value [22] was 0.654 µg/mL, the “IC80” value [22] was 2.17 µg/mL and the “IC50” value [23] was 0.004 µg/mL. For the same binder, the “IC80” value [23] was 0.011 µg/mL, the “IC50” value [24] was 0.002 µg/mL and the “IC80” value [24] was 0.013 µg/mL. The “IC50” value [25] was 0.004 µg/mL, the “IC80” value [25] was 0.016 µg/mL and the “IC50” value [26] was < 0.0006 µg/mL. The “IC80” value [26] was 0.004 µg/mL, the “IC50” value [27] was 29.5 µg/mL and the “IC80” value [27] was > 50 µg/mL. For the same binder, the “IC50” value [28] was 0.001 µg/mL, the “IC80” value [28] was 0.011 µg/mL and the “IC50” value [29] was 0.019 µg/mL. The “IC80” value [29] was 0.249 µg/mL, the “IC50” value [30] was > 50 µg/mL and the “IC80” value [30] was > 50 µg/mL. For the same binder, the “IC50” value [31] was < 0.0006 µg/mL, the “IC80” value [31] was 0.003 µg/mL and the “IC50” value [32] was > 50 µg/mL. The “IC80” value [32] was > 50 µg/mL, the “IC50” value [33] was < 0.0006 µg/mL and the “IC80” value [33] was 0.006 µg/mL. For the same binder, the “IC50” value [34] was 0.003 µg/mL, the “IC80” value [34] was 0.007 µg/mL and the “IC50” value [35] was 0.003 µg/mL. The “IC80” value [35] was 0.022 µg/mL, the “IC50” value [36] was 0.002 µg/mL and the “IC80” value [36] was 0.013 µg/mL.
